Results published in patent publication US11491212.

B1: FIXa-Y155F/R318Y/R338E/T343R/R403E (protein)
chain 1: not shown
chain 2: not shown
B2: FIXa-Y155F/R318Y/R338E/T343R/E410N (protein)
chain 1: not shown
chain 2: not shown
B3: FIXa-K247N/N249S/R338E/R403E/E410N (protein)
chain 1: not shown
chain 2: not shown
B4: FIXa-R318Y/R338E/T343R/R403E (protein)
chain 1: not shown
chain 2: not shown
B5: FIXa-Y155F/K247N/N249S/R338E/R403E/E410N (protein)
chain 1: not shown
chain 2: not shown

molecular target: Factor X, P00742
Sequence (P00742 whole entry, looked up): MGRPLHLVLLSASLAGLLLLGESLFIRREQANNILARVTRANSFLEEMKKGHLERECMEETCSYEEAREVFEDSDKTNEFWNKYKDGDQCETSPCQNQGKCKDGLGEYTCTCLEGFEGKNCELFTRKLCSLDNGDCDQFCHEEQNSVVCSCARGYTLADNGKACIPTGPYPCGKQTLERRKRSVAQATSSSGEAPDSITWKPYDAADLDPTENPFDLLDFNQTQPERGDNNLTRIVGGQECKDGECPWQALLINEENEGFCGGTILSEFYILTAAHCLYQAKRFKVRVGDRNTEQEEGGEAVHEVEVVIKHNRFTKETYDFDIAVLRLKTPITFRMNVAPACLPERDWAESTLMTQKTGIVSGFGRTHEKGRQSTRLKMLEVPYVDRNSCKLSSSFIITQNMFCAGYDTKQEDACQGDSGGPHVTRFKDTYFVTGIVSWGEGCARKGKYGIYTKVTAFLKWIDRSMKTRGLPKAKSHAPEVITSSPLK

| Protein | kcat/KM |
| --- | --- |
| B1 | 2.6e+08 M⁻¹ s⁻¹ |
| B2 | 3.7e+08 M⁻¹ s⁻¹ |
| B3 | 1.9e+08 M⁻¹ s⁻¹ |
| B4 | 1.6e+08 M⁻¹ s⁻¹ |
| B5 | 1.1e+08 M⁻¹ s⁻¹ |

molecular target: Factor X (FX), P00742
Sequence (P00742 whole entry, looked up): as above

| Protein | KM |
| --- | --- |
| B1 | 0.034 µM |
| B2 | 0.0256 µM |
| B3 | 0.025 µM |
| B4 | 0.0443 µM |
| B5 | 0.0487 µM |
